This note sets out measurements from patent US6576753B1, “DNA encoding human leukotriene C4 synthase” (The Brigham and Women's Hospital, Inc., priority 1994, dated 2003).

For data set [1], the system named is LTC4 synthase. Nature of the data set: Conjugation of LTA4-ME with GSH by solubilized microsomes of COS cells transfected with wild-type or mutant LTC4 synthase. The conditions noted are these: for Function / Km / effect on Km of GSH: COS cell microsome; for conjugation function of transfected COS cell microsomes: compared to wild-type construct.
Procedure: OF THE EXPRESSED PROTEINS: COS-7 cells were transfected with either wild-type LTC4 synthase cDNA or the mutated LTC4 synthase cDNA by DEAE-dextran transfection (Lam et al., Proc. Natl. Acad. Sci. USA., 91:7663, 1994). Three days after transfection, the cells were harvested by treatment with trypsin and suspended in microsomal buffer (50 mM HEPES buffer pH 7.9 containing 2 mM EDTA and 10 mM β-mercaptoethanol) at a concentration of 5×10^6 cells/ml. The cells were lysed by sonication with a Branson microtip sonicator (Danbury, Conn.) at a setting of 7. Cell lysates were centrifuged at 100,000×g for 60 min at 4° C., and the pellets (microsomes) were resuspended in microsomal buffer and were solubilized by the addition of 0.4% Triton X-102, 0.4% sodium deoxycholate (DOC), and 10% glycerol and stirring at 4° C. for 45 min.
The function of each mutant enzyme as well as the wild-type enzyme was first screened by the incubation of 1-10 μl of solubilized COS cell microsomes with 10 mM GSH and 20 μM LTA4-ME in 200 μl 50 mM HEPES buffer containing 10 mM MgCl2, pH 7.6. The reactions were carried out at room temperature for 10 min and stopped by the addition of 3 vol methanol containing 200 ng prostaglandin B2 (PGB2) as an internal standard. LTC4-ME levels in the samples were determined with high performance liquid chromatography (HPLC).
Reverse phase (RP)-HPLC was carried out with a model 126 dual pump system and model 167 scanning UV detector (Beckman Instruments) controlled by an Gateway 2000 P4D66 computer equipped with Beckman System Gold software. Samples were applied to a 5-μm 4.6×250-mm C18 Ultrasphere reverse phase column (Beckman Instruments) equilibrated with a solvent of methanol/acetonitrile/water/acetic acid (10:15:100:0.2, v/v), pH 6.0 (solvent A). Immediately after the sample was injected, the column was eluted at a flow rate of 1 ml/min with a programmed concave gradient (System Cold curve 6) to 20% solvent A and 80% solvent B (pure methanol) over 0.2 min with continuation isocratically for 5.8 min. Beginning at 6 min, solvent B was increased linearly to 100% over 0.2 min and was maintained at this level for 7 min more. The ultraviolet absorbance at 280 nm and the ultraviolet spectra were recorded simultaneously. The retention times for PGB2 and LTC4-ME were 7.4 and 8.9 min, respectively. LTC4-ME was quantitated by calculating the ratio of the peak area to the area of the internal standard PGB2.
The test system of data set [2] is LTC4 synthase. As to the kind of experiment: Enzyme kinetics of purified recombinant wild-type or mutant LTC4 synthase. Type of data set: biochemical, human. Conditions: purified recombinant enzyme. As for the experimental part:
PURIFICATION AND KINETIC ANALYSIS OF SELECTED EXPRESSED PROTEINS: Recombinant LTC4 synthases were purified by S-hexyl GSH agarose affinity chromatography (Lam et al., Eur. J. Biochem., 238:606, 1996). Solubilized microsomes were loaded onto a 2.5-cm×1.5-cm open bed of S-hexyl GSH resin equilibrated with 50 mM HEPES, 1 mM EDTA, 5 mM β-mercaptoethanol, 0.1% Triton X-102, 10% glycerol, pH 7.6 (Buffer A) at 4° C. The column was washed sequentially with 5 volumes each of buffer A/0.3 M NaCl/20 mM GSH/0.1% DOC, buffer A/2.5 mM S-hexyl GSH/2.5 mM S-octyl GSH/0.1% DOC, and buffer A/0.1% DOC; and the enzyme was eluted with 5 fractions of 1 volume each of 15 mM probenecid in buffer A containing 0.1% DOC. The enzyme was purified nearly to homogeneity as determined by the presence in silver stained SDS-PAGE gels of a predominant 18-kDa protein band with a minor 34-kDa band; only the 18-kDa band interacted with anti-LTC4 synthase antibody on immunoblot analysis. After sequential concentration and dilution with a Microsep 10K centrifugal concentrator (Filtron Technology Corp., Northborough, Mass.) to remove probenecid, the protein concentration was estimated by staining a SDS-PAGE gel of the purified enzyme and a standard amount of lysozyme resolved in the same gel with Coomassie blue dye and comparing their intensities.
To examine the enzyme kinetics of recombinant wild-type or mutant LTC4 synthase, 3-100 ng portions of purified enzyme were incubated in 200 μl of HEPES buffer, pH 7.6, containing 10 mM MgC'2 with either 20 μM LTA4-ME and various concentration of GSH or with 10 mM GSH and various concentrations of LTA4-ME for 2 min at room temperature. The reactions were terminated by the addition of 3 vol of methanol containing 200 ng PGB2. Samples were then analyzed for LTC4-ME by RP-HPLC.

Entries after “also recorded” stand apart in the source; their conditions may differ.

V49F: LTC4 synthase point mutant: the Function in the data set on LTC4 synthase [1] was 100 % of WT. The results for the Km with LTC4 synthase [1] (read-out: Km GSH) and with LTC4 synthase [1] (read-out: Km LTA4-ME) were 9200 µM and 10 µM, respectively.

Take Y109I: LTC4 synthase point mutant: in the data set with LTC4 synthase [1], the Function is 100 % of WT and the “conjugation function of transfected COS cell microsomes” value (“conjugation function” below) is on record as “did not affect the function”. Besides, the Km in the data set on LTC4 synthase [1] (read-out: Km GSH) is 1600 µM. In addition, in the data set with LTC4 synthase [1] (read-out: Km LTA4-ME), the Km was determined as 20 µM.

Take R99S: LTC4 synthase point mutant: the “conjugation function” value with LTC4 synthase [1] is given as “did not affect the function”.

Regarding H75Q: LTC4 synthase point mutant, in the data set with LTC4 synthase [1], the “conjugation function” value was “did not affect the function”.

A52S: LTC4 synthase point mutant: the Function in the data set on LTC4 synthase [1] is 80 % of WT. For the same molecule, the “effect on Km of GSH” value in the data set with LTC4 synthase [1] was “did exhibit an increase in Km for GSH”. Further, the Michaelis constant (Km) in the data set on LTC4 synthase [1] (read-out: Km GSH) came to 30000 µM; in the data set with LTC4 synthase [1] (read-out: Km LTA4-ME) it was 4.5 µM.

Turning to E47Q: LTC4 synthase point mutant, the “conjugation function” value with LTC4 synthase [1] is listed as “did not attenuate the conjugation function; also recorded: did not affect the function”.

Regarding R48S: LTC4 synthase point mutant, in the data set on LTC4 synthase [1], the “conjugation function” value is “did not attenuate the conjugation function; also recorded: did not affect the function”.

V54Q: LTC4 synthase point mutant: in the data set on LTC4 synthase [1], the “conjugation function” value is reported as “did not affect the function”.

Turning to R51K: LTC4 synthase point mutant, in the data set on LTC4 synthase [1], the Function is on record as 100 % of WT and the “conjugation function” value was “activity was not diminished”. Also, the Km in the data set on LTC4 synthase [1] (read-out: Km GSH) came to 2300 µM. The Km with LTC4 synthase [1] (read-out: Km LTA4-ME) turned out to be 9.4 µM.

Consider R51H, for which the “Vmax LTC4-ME” value with LTC4 synthase [2] came to 20.0 µmol/min/mg. For the same molecule, the Km worked out at 1500 µM in the data set on LTC4 synthase [2] (read-out: Km GSH), 6.3 µM in the data set on LTC4 synthase [2] (read-out: Km LTA4-ME), 3800 µM with LTC4 synthase [1] (read-out: Km GSH) and 6.4 µM in the data set with LTC4 synthase [1] (read-out: Km LTA4-ME). Further, in the data set on LTC4 synthase [1], the Function is 100 % of WT. Further, in the data set on LTC4 synthase [1], the “conjugation function” value is reported as “activity was not diminished”.

Consider F46Y: LTC4 synthase point mutant, for which, in the data set on LTC4 synthase [1], the “conjugation function” value was “did not affect the function”.

On to E76Q: LTC4 synthase point mutant, for which the “conjugation function” value in the data set with LTC4 synthase [1] is reported as “did not affect the function”.

Turning to L39F: LTC4 synthase point mutant, the “conjugation function” value in the data set with LTC4 synthase [1] is given as “did not affect the function”.

For F60Y: LTC4 synthase point mutant, the “conjugation function” value with LTC4 synthase [1] was “did not affect the function”.

Turning to L62T: LTC4 synthase point mutant, the Function in the data set with LTC4 synthase [1] is 100 % of WT. Moreover, in the data set with LTC4 synthase [1], the “conjugation function” value is “did not affect the function”. The figures for the Km in the data set on LTC4 synthase [1] (read-out: Km GSH) and in the data set with LTC4 synthase [1] (read-out: Km LTA4-ME) were 2500 µM and 6.7 µM, respectively.

Regarding R92S: LTC4 synthase point mutant, the “conjugation function” value in the data set on LTC4 synthase [1] is given as “did not affect the function”.

Take V69S: LTC4 synthase point mutant: the “conjugation function” value with LTC4 synthase [1] is reported as “did not affect the function”.

Take “N55A: LTC4 synthase point mutant of the consensus N-glycosylation site”: in the data set with LTC4 synthase [1], the Function is 85 % of WT. Besides, the “effect on Km of GSH” value in the data set with LTC4 synthase [1] is “increase the Km of GSH”. Besides, the figures for the Km in the data set on LTC4 synthase [1] (read-out: Km GSH) and in the data set on LTC4 synthase [1] (read-out: Km LTA4-ME) were 10700 µM and 7.7 µM, respectively.

As for E58Q: LTC4 synthase point mutant, the “conjugation function” value with LTC4 synthase [1] is reported as “did not attenuate the conjugation function”.

As to V69T: LTC4 synthase point mutant, the Function with LTC4 synthase [1] is listed as 100 % of WT. For the same molecule, the Km stood at 2000 µM in the data set on LTC4 synthase [1] (read-out: Km GSH) and 19 µM in the data set on LTC4 synthase [1] (read-out: Km LTA4-ME).

R104S: LTC4 synthase point mutant: in the data set on LTC4 synthase [1], the “conjugation function” value is “did not affect the function”.

As for C56S: LTC4 synthase point mutant, the “conjugation function” value is listed as “do not affect conjugation function” in the data set on LTC4 synthase [1] and “None of the mutations affected conjugation function” in the data set on LTC4 synthase [1] (listed as C56 to S56).

On to Y97F: LTC4 synthase point mutant, for which the Function in the data set on LTC4 synthase [1] is reported as 100 % of WT. Moreover, the Km with LTC4 synthase [1] (read-out: Km GSH) came to 16500 µM; in the data set on LTC4 synthase [1] (read-out: Km LTA4-ME), 16.5 µM.

Turning to Q53N: LTC4 synthase point mutant, the “conjugation function” value with LTC4 synthase [1] is “did not affect the function”.

For the molecule Y59F: LTC4 synthase point mutant, the Function with LTC4 synthase [1] is given as 100 % of WT. The Km turned out to be 15500 µM in the data set on LTC4 synthase [1] (read-out: Km GSH) and 19 µM in the data set on LTC4 synthase [1] (read-out: Km LTA4-ME).

Regarding Y50F: LTC4 synthase point mutant, in the data set with LTC4 synthase [1], the “conjugation function” value is recorded as “did not affect the function”.

R51I: LTC4 synthase point mutant: the entries for the “conjugation function” value in the data set with LTC4 synthase [1] and in the data set on LTC4 synthase [1] (listed as Arg 51 to isoleucine) were “do not show conjugation activity” and “abolished the functional activity”, respectively.

Turning to “WT: recombinant wild-type human LTC4 synthase (SEQ ID NO.:2)”, in the data set with LTC4 synthase [2], the “Vmax LTC4-ME” value came out at 51.3 µmol/min/mg. The Km with LTC4 synthase [2] (read-out: Km GSH) is 1400 µM; with LTC4 synthase [2] (read-out: Km LTA4-ME), 7.4 µM; in the data set with LTC4 synthase [1] (read-out: Km GSH) it was 500 to 2000 µM; in the data set with LTC4 synthase [1] (read-out: Km LTA4-ME) it was 6 to 20 µM. Further, the Function with LTC4 synthase [1] is 100 % of WT.

Turning to S111V: LTC4 synthase point mutant, in the data set on LTC4 synthase [1], the “conjugation function” value is listed as “did not affect the function”.

Consider E45Q: LTC4 synthase point mutant, for which, in the data set on LTC4 synthase [1], the “conjugation function” value is listed as “did not attenuate the conjugation function; also recorded: did not affect the function”.

Regarding T66V: LTC4 synthase point mutant, the “conjugation function” value with LTC4 synthase [1] is on record as “did not affect the function”.

With C82V: LTC4 synthase point mutant, in the data set with LTC4 synthase [2], the “Vmax LTC4-ME” value came to 37.7 µmol/min/mg. Also, the Km with LTC4 synthase [2] (read-out: Km GSH) came out at 900 µM; with LTC4 synthase [2] (read-out: Km LTA4-ME) it was 6.3 µM; in the data set with LTC4 synthase [1] (read-out: Km GSH), 2000 µM; in the data set with LTC4 synthase [1] (read-out: Km LTA4-ME), 10.9 µM. For the same molecule, in the data set with LTC4 synthase [1], the Function is reported as 100 % of WT. Moreover, the “conjugation function” value is recorded as “do not affect conjugation function” in the data set on LTC4 synthase [1] and “None of the mutations affected conjugation function” in the data set on LTC4 synthase [1] (listed as C82 to V82).

As to S100V: LTC4 synthase point mutant, in the data set with LTC4 synthase [1], the “conjugation function” value is “did not affect the function”.

B1: Q25K: LTC4 synthase point mutant (protein, UniProt Q16873 1-150, looked up, variant Q25K)
Leukotriene C4 synthase: MKDEVALLAAVTLLGVLLQAYFSLKVISARRAFRVSPPLTTGPPEFERVYRAQVNCSEYFPLFLATLWVAGIFFHEGAAALCGLVYLFARLRYFQGYARSAQLRLAPLYASARALWLLVALAALGLLAHFLPAALRAALLGRLRTLLPWA
Turning to B1, the “conjugation function” value with LTC4 synthase [1] is on record as “did not affect the function”.

B2: R51I/WT: recombinant pseudo-heterodimer of R51I LTC4 synthase monomer and wild-type monomer (protein, UniProt Q16873 1-150, looked up, variant R51I)
Leukotriene C4 synthase: MKDEVALLAAVTLLGVLLQAYFSLQVISARRAFRVSPPLTTGPPEFERVYIAQVNCSEYFPLFLATLWVAGIFFHEGAAALCGLVYLFARLRYFQGYARSAQLRLAPLYASARALWLLVALAALGLLAHFLPAALRAALLGRLRTLLPWA
modifications: heterodimer with wild-type monomer
As to B2, in the data set with LTC4 synthase [1], the Function was 90 % of WT and the “conjugation function” value is “retained enzymatic function”. The Michaelis-Menten constant (Km) in the data set with LTC4 synthase [1] (read-out: Km GSH) is 3200 µM. The Km with LTC4 synthase [1] (read-out: Km LTA4-ME) amounted to 6.5 µM.

B3: deletion of the charged amino acids K2 and D3 at the amino terminus: LTC4 synthase deletion mutant (protein, UniProt Q16873 1-150, looked up, variant K2* D3*)
Leukotriene C4 synthase: MEVALLAAVTLLGVLLQAYFSLQVISARRAFRVSPPLTTGPPEFERVYRAQVNCSEYFPLFLATLWVAGIFFHEGAAALCGLVYLFARLRYFQGYARSAQLRLAPLYASARALWLLVALAALGLLAHFLPAALRAALLGRLRTLLPWA
For B3, in the data set with LTC4 synthase [1], the “conjugation function” value was “Neither the deletion of the charged amino acids K2 and D3 at the amino terminus nor the deletion of the 14 amino acids at the carboxyl terminus altered the function”.
